The results in this text go back to the DeepSol protein solubility set.

A short description of the series: soluble on expression in E. coli; label from the status in PepcDB or PDB records.
As to “MGSDKIHHHHHHMDVLTPTPLTYPYEASRPKMALIAEGGGQRGIFTAGVLDAWLDNDFDPFDLFIGTSAGSQNLTSFLSRQKGYAKRLIRGLSRHKRFYQLGRGLVGGNVVDLDWYFDKTTQGSFALDFTAAAKSLGQRELLITATNSRDRQGYFLRPNGDNDHWRELLKASSALPFLYKQGVKLAPWLTASAANQVHTNYDYPQADFYLDGGLAAPLPVREAYRRGARKIVVIRTVNADFHAQSAWVHKLKSWICVSGYCPKTIDYLAQHEQAYEQELAFIANPPDDVEIIQIFADDNLQSKLLGSTDMDLRHDYQTGITAGNAFLHTQKAFYSTHSLHAQPLLESLTIMQSMTA”, the “soluble on expression in E. coli” value is “not soluble”.

“MVLSCRVVDCGGLKLKENQTLLLLVSTIHNSSEVGKLSIDAEEKRSKEWLEMPCAEGMLSLKLTLWQDLLKGINSVFHGQVRVDVDENWKSGPAKWFYLRSKANEDGEGGEDGGDIGDATVKVTYQIDHILRMQVYKPLLDLLFLAGDVQPLTASLVAVIEALPKVELGPVSRSLVELMAQSDRIRPVLSSLYVNSILKCQDENTLFRGQSLSGKMLFEILTTYGKMYLITTLKPVVDKIYKERKNCEVDPARVAVGASLEKNRNNLLVYFQMLFERVTTSSTNCPHLIKQLLYDLRNVVGTHSSRSGVQRLAVSSFVIMRFFAAAILNPKAFEIRKDQPDLRVSRTLLLLSKLLQRLSNCSVSEGPLSSKEIWLNGVFETVTSEQHKSVMASFLDNISLVGDRSEPQKCTVFKFGNLQQVDRSRLAWKKVLHYKKRYVQLTNTHLIWQKDVQCAPKGTVPLSDIKFVNVDNKNIITIVCETMQLQFEAPGGVEATDWLNAIERQRNRAAHEIAETPGEHFFVDAERHVDKIHTLLYKYRETMIEWRDQLQSNVELDEKTAPELLKASYVVEEERQSHKDSLIATLCSTIDVTDAIQLAHTEYEKENKVSRRIDAIITAKKRQKSFSVK”: the “soluble on expression in E. coli” value is “not soluble”. As for “MAHHHHHHMLSNVPEEPEKLVREVSDLAEAFITNLKRGKLAAARSGGESLSTAAAVEMADVMSTIVRLFQNAEKDLHSTTIQLLKAGYPAAEVASMQVSRLLILVARTGDAMLRAQFATLFLMNVTRRVLSIVRESAANSKATDAELEDEAKTILNDLASDDEAAVVETPADTSSSSSNRCGMDDSTDPASPSLSAKGMKPALKRDTLVSQPLSRRGLSVRFAGTSTSSEEASGGHMRQLQQHSTSVASDFGGPLLQHTGSIVATEIPGRQLLKRAPSRCEQVLEGGGGEIEFPVRMEIFYQDALDAIDEFKRELEGMTEELCRRSTRQLHSSDTIITLGCSHTIRRYLLEAAQAGHHFKVFILEGAPLPAQATQEFAEALCSRGITAQLLPDSSAYVVMSMCTKVLVGAENVLANGGMLASIGTHVLCAAARHFAVPVLVATTTLKMSPYYPSDQLCTRLVRIARSGAQEMPWSTYGSPEDVWPSPFGVSVSDSGRRLTIHAPVTEYVPPELITLFLTNDSELLPSQIHRIVRANYSDAD”, the entry is “not soluble”; as for “MGSDKIHHHHHHMNLNALIDFMLVANNEGLGKASRASGISKATLSRRIADLEEQLGVRLIERSARGLKLTEAGEMLMARTEGPLGEVAEAMTATRDGVATPRGRLRVASPVLFSQLAMGRIGAGFYAAYPEVIIEVTAEDRLVDLVEEQFDVAIRINPDPDSRLVGRCFARDRLVVVAAPELPRPMPGAIRQTPAIVTSSFQPTHWKLDNGHLVLKPIPKLWFSSLMMVRDAAVAGGGAALIPQSIAWSQLASGQLVQWGTVSGAEPELWVLHTSRRLVSPKVRAFVDFICASNPDMSLVLKG”, “not soluble”. With “MSLDRASHLKMSSEERRAHRDGTVWQLYEWQQRQQFRHGSPTAPICLGSPEFTDQGRSRSMLEVPRSISVPPSPSDIPPPGPPRVFPPRRPHTPAERVTVKPPDQRRSVDISLGDSPRRARGHAVKNSSHVDRRSMPSMGYMTHTVSAPSLHGKSADDTYLQLKKDLEYLDLKMTGRDLLKDRSLKPVKIAESDTDVKLSIFCEQDRVLQDLEDKIRALKENKDQLESVLEVLHRQMEQYRDQPQHLEKIAYQQKLLQEDLVHIRAELSRESTEMENAWNEYLKLENDVEQLKQTLQEQHRRAFFFQEKSQIQKDLWRIEDVTAGLSANKENFRILVESVKNPERKTVPLFPHEGHHHHHH”, the “soluble on expression in E. coli” value is “soluble”. As to “MQDEFDLFRTETKGIKPIKQDTFVAPRQKRDQKKIELKELRAKEDTLFYFSDEYEPLLNDNDGVVKYLRDGEDSHLLKQLRRGDFSPELFLDLHGLTREQAKQELAALLLACENEHVDCASIMTGYGTFTLKKQIPRWLVQHPKVRALHQAPREWGGEAAILILVDL”, the “soluble on expression in E. coli” value was “soluble”. As to “MTKKQKEILFCDYFEEWVEVYKVGAIAKITLAKYYNAAKQLRDLCPKLFISDFDRREYQRIINVYAETHEKQTVKDFHHHVKACIKDLFHDGLIDKDPTYRVVIKGAELEHHHHHH”, the “soluble on expression in E. coli” value is listed as “soluble”. As for “MDNAHTPPFAGLTPDAILDAVESLGLRASGSLLALNSYENRVYQVGLDDAAPLVAKFYRPARWSDAAILEEHAFSLQLAEREIPAVPPLAFGGRTLHGHGGFRFALFERRGGRVPELDRDETLQWVGRFLGRIHALGRTEGYRHRPTLDMQSFGREPVDFVLGGGWLPPELEAVYRGVAEQALQGVARCFERAGPVAQLRLHGDCHVGNLLWTDAGPHFVDFDDSRMGPAVQDLWMLLSGERAEQSRQLGEVLAGYEDFCEFDLRELNLLEALRTLRLLHYSAWLARRWHDPAFPAAFPWFGAPRYWEEQILALREQIALMDEPPLWSCLEHHHHHH”, the entry is “not soluble”; as for “MYLAYYGFAEKPFQLKPDPNFFFPSRGHKRAAAYLEYGLSQEDGFIIITGDVGAGKTTLMRYLFQKLRQERVAAAQLVSTRLDPDDALRMVAAAFGLSYEGLSKAALLLELERFMRKCERESTRVLLVVDEAQNLLPQTLEELRMLSNFQSDNRPLLQTFLLGQPEFRRTLLGSQMQQLRQRVIATYHLGPLDQAETRAYIEHRLQKAGWNGSPVLQDEIFEVIHNFSAGIPRKINLFCDRLLIMGCLEELQTLGKAEANEVMLDIQKEFDLAVSPELEHHHHHH”, “soluble”. “MADYDLAIIGGGLNGVSLARDAAGRGLRVILFEQGDLGGAASSATPRLIHGDLSVLERRGFWRVRRALAERRIWLRIAPHLVRPMRFVIPAHSEERPPWLLRAGLYVYDGLTNRGGLPPSATLDITHHPVGNALKRPFGTAFEYSDCVVDDSRLVVLTALDAAERGAAIHTGARCVRADRTDTWRLAVVDRGHRRTITARALANATGGWTSMVADTVLREPQPAMAAMQMSQIIVPRLFDSENVYVFQNNDGRLIFARPLERDFTLIGTVTHAFTGDPAIVAMPGADVSYLCEAASRYFRERVAPTDVVRTVSGVNLTLASARGRDGTALFHARRRKAPLITMFGGDVTTSRLRAERAVTRLTPFYPMSPPWTDGAVLPGGDFAWDRFDTEVDLARDRWRFLSEPEAQRLVAAYGSRLPAVLGEARTRDELGPTFGPELTGAEVRYLMSHEWARFPEDVLWRRSKLGLTMPKADRDGLAAFMADVNDRPEPVEQRPIGRLEHHHHHH”: the “soluble on expression in E. coli” value is “not soluble”. As to “MAGDPMKIYFEAYGCTLNQGETALYVNKLLNEGNTLVSNPKEADLSIIGTCAVIKKTEDHMMARIQNLSRFGKVEVIGCLAPVKGKTMVEDNVSVIEKDRFRSFQEVIDEVSPVNAEIVSGIPINQGCTGKCNFCVSHIARGKLVSRKPEKIAGQIKILLQRGIKEIKITSLDTAAYGKDIGLRLPHLIRTITEIGDDFRLRVGMMEPKNTLEIVDDLISAYRSEKVFKFLHLPVQSGDDYVLEVMNREYTVSDFIRITGKFREAFPDSTLSTDLIIGYYAENDDSFEKTVQLIEKIRPEIINVTKFSPRELTADFEKRPKPTNILKEQDRMIADMHKEILQEKFSNLIGKTEFVLITENGKGRSMIGRDHAYRPIVIMDKTRKFEFHQVEITGFENTSLIGRIIDLEHHHHHH”, the “soluble on expression in E. coli” value was “not soluble”. “MAYWLMKSEPDELSIEALARLGEARWDGVRNYQARNFLRAMSVGDEFFFYHSSCPQPGIAGIARITRAAYPDPTALDPESHYHDAKATTDKNPWSAVDVAHVQTFPRVLELGRLKQQAGLVELPLVQKGSRLSVMPVTPEQWAVIVALRLEHHHHHH”: the “soluble on expression in E. coli” value is “soluble”. Turning to “MKALERTVTVKGLAEKEVKANIAIWPINFTEVDNNLPKLYETVQLKTDKVVAFLKERGFSDSEITISLPSIEDRQAQGYVDPNVKYRYSAKVNLSVYTSQIDLMLSSRKQMINLVKEGIAIASQDYENRTEFLFTQLNDVKPTMVQEATQNAREVAEKFAKDSESRLGKIKSASQGQFTISDRDSSTPYIKQIRIVSTLTYYLNDLEHHHHHH”, the “soluble on expression in E. coli” value was “not soluble”. As for “EIGYYEWAIENDEMHCNSLYKKIFGFSDAHDPTYKEFTSQIFPKDLSVRNNAVQRAILVGGVYNAEYRVRHPNDELRWVKSFGKAIYDEKGKPVKLIGMILD”, the entry is “not soluble”; as for “MGSDKIHHHHHHGGLGDKSFNDGTWAGIKQAAEELGIEAKVIQSYEQSDYIPNLSKAAEEADLVFAVGFMMTNDLFKVAKQYPDTYFVGIDITPPEGQILPNVLTFTFKEQEAAFLVGYVAAAMTKTGMVGFVGGIPIPPVERFRYGYEAGIKTYSVLHKKNVKILRGYTQDFEDPKKGKDLAMSQFAEGADIVFHASGACGNGVIEAAREKFSALAGSDKLVDLIDYYTTNGKGFFAIGVDMDQDYMAPGAVLTSAMKRVDVASYYGVVWAYEGTFEGGHRVLGISEDAVGISPMKYTKGLVPNRVIAELLYLEKLMKEGTLKVPETQEELDAFEVPQIEFPF”, “not soluble”; as for “MLLDKIQNLIIQSDISIFQSMKKMDEEKVKLLFVFRGDCFVGILTIGDIQRAIIKQNDTSMQINNILDQNKVFAYKGESLEIIKNKMIHLRAECMPILDSKGELVDVLFWKDLFIDEVRVDDRKIDLPVVIMAGGKGTRLKPLTNVIPKPLIPIGDKTILEAILDQFESIGCSKFYMSVNYKYDILKFYLAQLDHKYDIRFFKEDKPLGTIGSVSLLKDKISTPFFVSNCDIIIDQDYRDVYDYHINNSNDLTIVTAVKRTRIPYGVIETIENGLMTELIEKPEFTYMINSGVYILQPELINEIPENELFHITHLMEKVKSRGGKIGCFPVSEKSWTDIGEWNEYLKLLGILEHHHHHH”, “not soluble”.

In the case of “MHRYPRPVSPPVYGPYGSGGHYNPYFHYGVSSFPSAPVHWPHLPSGHAAPPSYPMPYPKPGPLLPPPRPSFLAQFKNSDGTYDINKMMSTVGQMINTVNQVNGVLKGLLGTFKK”, the “soluble on expression in E. coli” value is reported as “not soluble”. Take “MGSDKIHHHHHHMLNSIMEDKKELLKSLLRQIHEGRDVSELKEQFKDVLASISPLEIPLIEQELVKEGISTREIAKMCDIHVELFRESVEGAFSVEDIPEGHPLHTLFMENREIVKDAEMLALLANTLEREMKGEILEEMESVVAELIKVGHTHYNREEMLIFPYIERRGITAIPNVLWFKHDEIRAALRVLHRLLTTDTGERWEEHIKRVVEKAREVSSAMLDMVFRENNIFYPTLKVLLSEGEWRAIREQEEIIGYYKLKPAEWKSDAKPVHPYEIDTTITAEQLISLPEEVQNLLKGQLLKPDSYEVVREDDLRLDEGYLSQREINAIFKALPFDITFVDSNDRVRFFSGSDRIFARTPSVIGRRVHLCHPPRSVHIVDKILKAFRNGERDFAEFWINMGGRIIHIRYFAVRDEGEYLGTVEVVQDVTEIKRLEGEKRLLGWK”: the “soluble on expression in E. coli” value was “not soluble”.
